# Experimental data taken from patent US20250043302A1, “MUTATED HYDROXYPHENYLPYRUVATE DIOXYGENASE POLYPEPTIDE, AND CODING GENE AND USE THEREOF” (BEIJING DABEINONG BIOTECHNOLOGY CO., LTD., priority 2021, published 2025).
# Columns and labels:
# Assay type in all cases: in vivo
# [1] = system: Arabidopsis thaliana T1 plants; experiment: Topramezone tolerance of transgenic Arabidopsis thaliana T1 plants (spray, bleached leaf area grade, damage score); conditions: 7 DAT, Table 4; for Classification and statistics of the grade of pesticide damage: Grade 0 / Classification and statistics of the grade of pesticide damage: Grade 1 / Classification and statistics of the grade of pesticide damage: Grade 2 / Classification and statistics of the grade of pesticide damage: Grade 3: number of plants; for Scores: pesticide damage score 0-100
# Summary of the method: (§1)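 Damage graded 0–3 from the proportion of bleached leaf area 7 days after spraying. Plants were glufosinate-selected T1 lines, 18 days after sowing, plus vector and wild-type controls. Rates: mesotrione 52.5–420, isoxaflutole 35–280, topramezone 25–200 g ai/ha, with water (0×).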
# [2] = system: Arabidopsis thaliana T1 plants; experiment: Isoxaflutole tolerance of transgenic Arabidopsis thaliana T1 plants (spray, bleached leaf area grade, damage score); design: Scores (pesticide damage): scale not given here; conditions: spray, Arabidopsis thaliana T1 plants; for Classification and statistics of the grade of pesticide damage: Grade 0 (number of plants) / Classification and statistics of the grade of pesticide damage: Grade 1 (number of plants) / Classification and statistics of the grade of pesticide damage: Grade 2 (number of plants) / Classification and statistics of the grade of pesticide damage: Grade 3 (number of plants): 16 plants
# Summary of the method: as §1
# [3] = system: Arabidopsis thaliana T1 plants; experiment: Mesotrione tolerance of transgenic Arabidopsis thaliana T1 plants (spray, bleached leaf area grade, damage score); design: Scores: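 damage score 0-100 computed as Σ(N×S)/(T×M)×100 over grades 0-3 with higher meaning more damage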; conditions: Arabidopsis thaliana T1 plants; for Grade 0 (classification and statistics of the grade of pesticide damage; number of plants) / Grade 1 (classification and statistics of the grade of pesticide damage; number of plants) / Grade 2 (classification and statistics of the grade of pesticide damage; number of plants) / Grade 3 (classification and statistics of the grade of pesticide damage; number of plants): 16 plants
# Summary of the method: as §1
# [4] = isoxaflutole 35 g ai/ha (0.5x field concentration)
# [5] = isoxaflutole 70 g ai/ha (1x field concentration)
molecule,measurement,setting,value
"GsHPPDm-F383W-02: nucleotide sequence encoding Gossypium hirsutum HPPD with F383W; vector DBN11740 (nucleic acid, GsHPPDm-F383W-02 Nucleotide Sequence, vector DBN11740) DNA: ATGGTTCAAACAAATCAATCTGGTTCTGGGAATGATTTCAAGCTGGTTGGTTTCTCAAATTTTGTGCGTAGCAATCCCAAATCAGACCGCTTCACGGTCAAGAGATTCCACCACATTGAATTTTGGTGCACTGATGCCACTAATGTGGCGAGGAGGTTTTCATGGGGTTTAGGGATGCAGTTCGTCGCCAAGAGTGACCTCTCCACAGGAAATTTGACGCATGCAAGCTACCTGCTGCGGAGCCGCGACTTGAATTTCCTGTTTACAGCACCATATTCACCCAGTATTGCAGTTGCTCAAAACCTTTCGCCACAAAGCACTGCTTCCATACCTTCATTTGATCACTCGCTTTGTCGGTCCTTTGCTGCAACACATGGACTTGGCGTCAGAGCAATTGCCATCGAGGTGGACGACGCCGAAACTGCCTTCACCACGAGCGTGACACATGGCGCGCTCCCTTTTTGTCCACCAACACCACTAGGAGATGTGGCTACAATTGCTGAAGTTAAATTATATGGTGATGTTGTGCTCAGATATGTTTCTTACACCACAACCATCAACTCCGACCATGATTTTCTGCCTGGTTTTGAGAAGATTGAAGATACTCTATCGTATCCTTTGGATTATGGCCTGCGTCGGCTCGATCATGCTGTTGGCAACGTACCTGAATTAGGTCCTGCTGTATCTTATGTGAAATCTTTTACTGGGTTCCATGAGTTTGCAGAGTTCACCGCTGAGGATGTAGGAACAAGTGAATCTGGGCTGAACTCAGTTGTTTTGGCCAACAATGAGGAAATGGTCCTCTTACCAATGAACGAGCCGGTGTTCGGCACTAAGCGCAAATCTCAAATACAGACCTACTTGGAGCACAATGAAGGAGCTGGTGTGCAGCACCTCGCCCTCGTCTCGGAGGACATCTTCAAAACTTTAAGGGAGATGAGGAAACGATCCTTTGTGGGAGGATTTGAATTCATGCCTTCTCCGCCGCCGACATACTACAAGAAGCTCAAGCAGCGCGCGGGGGACATTTTGTCTGATGAGCAGATCAAGGAGTGTGAAGAGCTTGGGATTCTTGTTGATAGAGATGATCAAGGAACGCTTCTGCAGATATTTACCAAGCCCGTCGGCGACCGGCCTACTATATGGATTGAGATCATCCAGAGAATTGGTTGCATGGTGAAGGATGAAGAAGGGAAACAGTACCAGAAGGGCGGCTGCGGCGGGTTTGGAAAAGGAAACTTCAGTGAGCTGTTTAAAAGTATAGAGGAGTATGAAAAGAGCTTGGAAGCAAAACAATCACAAAATCCATGA",Classification and statistics of the grade of pesticide damage: Grade 0,[1]; topramezone 25 g ai/ha (1×),0
same,Classification and statistics of the grade of pesticide damage: Grade 1,[1]; topramezone 25 g ai/ha (1×),3
same,Classification and statistics of the grade of pesticide damage: Grade 2,[1]; topramezone 25 g ai/ha (1×),9
same,Classification and statistics of the grade of pesticide damage: Grade 3,[1]; topramezone 25 g ai/ha (1×),4
same,Classification and statistics of the grade of pesticide damage: Grade 0,[1]; topramezone 100 g ai/ha (4×),0
same,Classification and statistics of the grade of pesticide damage: Grade 1,[1]; topramezone 100 g ai/ha (4×),0
same,Classification and statistics of the grade of pesticide damage: Grade 2,[1]; topramezone 100 g ai/ha (4×),0
same,Classification and statistics of the grade of pesticide damage: Grade 3,[1]; topramezone 100 g ai/ha (4×),16
same,Scores,[1]; topramezone 25 g ai/ha (1×),69
same,Scores,[1]; topramezone 100 g ai/ha (4×),100
same,Resistance evaluation,[1]; topramezone 25 g ai/ha (1×),non-resistant (non-resistant plants (scores 68-100))
same,Resistance evaluation,[1]; topramezone 100 g ai/ha (4×),non-resistant (non-resistant plants (scores 68-100))
same,Resistance evaluation,[2]; [4],Non-resistant
same,Scores (pesticide damage),[2]; [4],73
same,Classification and statistics of the grade of pesticide damage: Grade 0 (number of plants),[2]; [4],0
same,Classification and statistics of the grade of pesticide damage: Grade 1 (number of plants),[2]; [4],2
same,Classification and statistics of the grade of pesticide damage: Grade 2 (number of plants),[2]; [4],9
same,Classification and statistics of the grade of pesticide damage: Grade 3 (number of plants),[2]; [4],5
same,Resistance evaluation,[2]; [5],Non-resistant
same,Scores (pesticide damage),[2]; [5],100
same,Classification and statistics of the grade of pesticide damage: Grade 0 (number of plants),[2]; [5],0
same,Classification and statistics of the grade of pesticide damage: Grade 1 (number of plants),[2]; [5],0
same,Classification and statistics of the grade of pesticide damage: Grade 2 (number of plants),[2]; [5],0
same,Classification and statistics of the grade of pesticide damage: Grade 3 (number of plants),[2]; [5],16
same,Resistance evaluation,[3]; mesotrione 52.5 g ai/ha,Non-resistant
same,Scores,[3]; mesotrione 52.5 g ai/ha,100
same,Grade 0 (classification and statistics of the grade of pesticide damage; number of plants),[3]; mesotrione 52.5 g ai/ha,0
same,Grade 1 (classification and statistics of the grade of pesticide damage; number of plants),[3]; mesotrione 52.5 g ai/ha,0
same,Grade 2 (classification and statistics of the grade of pesticide damage; number of plants),[3]; mesotrione 52.5 g ai/ha,0
same,Grade 3 (classification and statistics of the grade of pesticide damage; number of plants),[3]; mesotrione 52.5 g ai/ha,16
same,Resistance evaluation,[3]; mesotrione 105 g ai/ha,Non-resistant
same,Scores,[3]; mesotrione 105 g ai/ha,100
same,Grade 0 (classification and statistics of the grade of pesticide damage; number of plants),[3]; mesotrione 105 g ai/ha,0
same,Grade 1 (classification and statistics of the grade of pesticide damage; number of plants),[3]; mesotrione 105 g ai/ha,0
same,Grade 2 (classification and statistics of the grade of pesticide damage; number of plants),[3]; mesotrione 105 g ai/ha,0
same,Grade 3 (classification and statistics of the grade of pesticide damage; number of plants),[3]; mesotrione 105 g ai/ha,16
